{
  "source": "patent US6485937",
  "key": {"[1]": {"molecular_target": "carboxy terminal domain (CTD) of RNA polymerase II fused to GST (GST-CTD) [GST: P08515]"}, "[2]": {"molecular_target": "HIV TAT trans-activating protein (wildtype TAT, His-tagged fusion)"}},
  "data": [
    {"protein": "FLAG-epitope tagged HIV tat interacting protein of 30 kDa (f-TIP30) (protein) DYKDDDDKMAETEALSKLREDFRMQNKSVFILGASGETGRVLLKEILEQGLFSKVTLIGRRKLTFDEEAYKNVNQEVVDFEKLDDYASAFQGHDVGFCCLGTTRGKAGAEGFVRVDRDYVLKSAELAKAGGCKHFNLLSSKGADKSSNFLYLQVKGEVEAKVEELKFDRYSVFRPGVLLCDRQESRPGEWLVRKFFGSLPDSWASGHSVPVVTVVRAMLNNVVRPRDKQMELLENKAIHDLGKAHGSLKP", "values": [
      {"measurement": "in vitro kinase assay (phosphorylation of GST-CTD, [g-32P]ATP, autoradiography)", "setting": "[1]", "value": "it could phosphorylate the carboxy terminal domain (CTD) of RNA polymerase II fused to GST (GST-CTD) in an in vitro kinase assay"},
      {"measurement": "stimulation of f-TIP30 kinase activity on GST-CTD substrate (in vitro kinase assay)", "setting": "[2]", "value": "stimulate the kinase activity of recombinant f-TIP30 on GST-CTD substrate in a dose dependant manner"}
    ]}
  ]
}
